Test results: the supplement of paper PMC9732359
± gives the uncertainty stated by the source.

Experiment: protein stability index of a GFP-peptide fusion (yeast GPS) (PSI 1-4); higher = more stable; sorted into four equal gates, so the index is relative within each strain
In short: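 The protein stability index of a peptide was calculated by multiplying its read frequency in each gate by that gate's number and adding the products. The peptides were tiled 17-residue stretches of yeast proteins, fused downstream of GFP on a Cherry-expressing plasmid and carried in yeast as a pooled library. Mid-log cultures in leucine-free medium were sorted into four equal gates by GFP/Cherry ratio, and each gate's plasmids were PCR-amplified and Illumina-sequenced.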

QGITRNVVNYLSINKNF [RPC17]
protein stability index (doa10∆): 1.31 ± 0.059 | protein stability index (pdr5∆): 1.62 ± 0.051 | protein stability index (san1∆): 1.23 ± 0.093 | protein stability index (ubr1∆): 1.52 ± 0.038

AQAQAQAQAQAHAQHQP [GAL11]
protein stability index (doa10∆): 2.81 ± 0.029 | protein stability index (pdr5∆): 2.926 ± 0.023 | protein stability index (san1∆): 2.834 ± 0.027 | protein stability index (ubr1∆): 3.032 ± 0.024

IINFGEIEQNTELLDEF [RPN10]
protein stability index (doa10∆): 3.25 ± 0.1 | protein stability index (pdr5∆): 3.42 ± 0.083 | protein stability index (san1∆): 3.23 ± 0.07 | protein stability index (ubr1∆): 3.17 ± 0.072

LQMYSKIRRHPNIMLIF [FAS1]
protein stability index (doa10∆): 1.72 ± 0.039 | protein stability index (pdr5∆): 2.01 ± 0.042 | protein stability index (san1∆): 1.97 ± 0.08 | protein stability index (ubr1∆): 1.91 ± 0.034

DIPLAKALDNACGAFIN [CDC53]
protein stability index (doa10∆): 2.63 ± 0.091 | protein stability index (pdr5∆): 3.1 ± 0.067 | protein stability index (san1∆): 2.8 ± 0.078 | protein stability index (ubr1∆): 2.87 ± 0.072

TVYISSIALLKMLKHGR [RPN11]
protein stability index (doa10∆): 2.25 ± 0.085 | protein stability index (pdr5∆): 2.09 ± 0.079 | protein stability index (san1∆): 2.65 ± 0.054 | protein stability index (ubr1∆): 2.79 ± 0.066

RRVPKELAVENPLAKTM [SEC65]
protein stability index (doa10∆): 2.99 ± 0.052 | protein stability index (pdr5∆): 2.93 ± 0.042 | protein stability index (san1∆): 2.47 ± 0.054 | protein stability index (ubr1∆): 1.69 ± 0.026

IDMLPMLLGTDLCSLKP [DIS3]
protein stability index (doa10∆): 2.74 ± 0.066 | protein stability index (pdr5∆): 2.71 ± 0.065 | protein stability index (san1∆): 2.69 ± 0.07 | protein stability index (ubr1∆): 2.45 ± 0.057

FVFQTVFDTAITSWYEN [QCR9]
protein stability index (doa10∆): 1.66 ± 0.054 | protein stability index (pdr5∆): 1.6 ± 0.039 | protein stability index (san1∆): 1.74 ± 0.077 | protein stability index (ubr1∆): 1.97 ± 0.044

LYNKIWTEASSSGAGTV [ECM29]
protein stability index (doa10∆): 2.12 ± 0.065 | protein stability index (pdr5∆): 1.76 ± 0.058 | protein stability index (san1∆): 2.12 ± 0.081 | protein stability index (ubr1∆): 2.93 ± 0.08

QHQSLSRSSSKNVNIED [ESC2]
protein stability index (doa10∆): 2.83 ± 0.18 | protein stability index (pdr5∆): 2.69 ± 0.11 | protein stability index (san1∆): 2.32 ± 0.11 | protein stability index (ubr1∆): 3.04 ± 0.084

FKYIYELILAGAIDEAL [YDL116W/NUP84]
protein stability index (doa10∆): 1.6 ± 0.074 | protein stability index (pdr5∆): 1.5 ± 0.073 | protein stability index (san1∆): 1.44 ± 0.1 | protein stability index (ubr1∆): 1.52 ± 0.067

LISGKAGVLNGTLEYGT [RET1]
protein stability index (doa10∆): 2.83 ± 0.056 | protein stability index (pdr5∆): 3.03 ± 0.062 | protein stability index (san1∆): 3.02 ± 0.063 | protein stability index (ubr1∆): 2.99 ± 0.059

ANEQLKLFNRIVERETN [CSN12]
protein stability index (doa10∆): 2.5 ± 0.12 | protein stability index (pdr5∆): 2.73 ± 0.16 | protein stability index (san1∆): 1.71 ± 0.24 | protein stability index (ubr1∆): 2.81 ± 0.15

LEALRQNYRLDGRSFDQ [RRP45]
protein stability index (doa10∆): 2.43 ± 0.11 | protein stability index (pdr5∆): 1.97 ± 0.12 | protein stability index (san1∆): 1.61 ± 0.14 | protein stability index (ubr1∆): 2.81 ± 0.086

FYQQVHKKDRLQYLPLY [SIR4]
protein stability index (doa10∆): 1.64 ± 0.063 | protein stability index (pdr5∆): 1.77 ± 0.058 | protein stability index (san1∆): 1.75 ± 0.11 | protein stability index (ubr1∆): 1.67 ± 0.048

VDASPNDVTRRTVKNIL [CSL4]
protein stability index (doa10∆): 3.19 ± 0.085 | protein stability index (pdr5∆): 3.18 ± 0.085 | protein stability index (san1∆): 3.1 ± 0.078 | protein stability index (ubr1∆): 3.3 ± 0.063

MQHNPLAGKRGPKSGST [PGD1]
protein stability index (doa10∆): 2.94 ± 0.064 | protein stability index (pdr5∆): 2.74 ± 0.057 | protein stability index (san1∆): 2.85 ± 0.063 | protein stability index (ubr1∆): 2.96 ± 0.048

CISLGSTKLSRPFDSFG [ITC1]
protein stability index (doa10∆): 3.06 ± 0.067 | protein stability index (pdr5∆): 2.93 ± 0.061 | protein stability index (san1∆): 3.03 ± 0.048 | protein stability index (ubr1∆): 3.01 ± 0.08

PLRLRLYDNFVSKFYDK [RPN9]
protein stability index (doa10∆): 3.17 ± 0.068 | protein stability index (pdr5∆): 3.18 ± 0.068 | protein stability index (san1∆): 3.17 ± 0.064 | protein stability index (ubr1∆): 2.96 ± 0.079

HKQISAEDLTIAAKTHI [SIN4]
protein stability index (doa10∆): 3.03 ± 0.12 | protein stability index (pdr5∆): 3.1 ± 0.079 | protein stability index (san1∆): 3.35 ± 0.084 | protein stability index (ubr1∆): 2.76 ± 0.088

AQANNNNNGLPQNGNIN [GAL11]
protein stability index (doa10∆): 3.04 ± 0.049 | protein stability index (pdr5∆): 3.11 ± 0.049 | protein stability index (san1∆): 3.05 ± 0.056 | protein stability index (ubr1∆): 2.98 ± 0.038

NEYRLAFYQVTPEEDEE [RPL22A]
protein stability index (doa10∆): 2.52 ± 0.077 | protein stability index (pdr5∆): 2.61 ± 0.071 | protein stability index (san1∆): 2.75 ± 0.073 | protein stability index (ubr1∆): 2.69 ± 0.087

TALDAEGAARGTSVYLV [DIS3]
protein stability index (doa10∆): 2.24 ± 0.13 | protein stability index (pdr5∆): 1.58 ± 0.082 | protein stability index (san1∆): 2.47 ± 0.12 | protein stability index (ubr1∆): 2.28 ± 0.096

ISTSFCFICLLHLANEH [BRN1]
protein stability index (doa10∆): 1.67 ± 0.12 | protein stability index (pdr5∆): 1.21 ± 0.13 | protein stability index (ubr1∆): 1.35 ± 0.13

LDIGLQRTTTGARVFGA [RPL5]
protein stability index (doa10∆): 1.35 ± 0.073 | protein stability index (pdr5∆): 1.29 ± 0.096 | protein stability index (san1∆): 1.31 ± 0.13 | protein stability index (ubr1∆): 1.12 ± 0.071

VQNLRSWETKLKQNILE [CSN9]
protein stability index (doa10∆): 1.83 ± 0.077 | protein stability index (pdr5∆): 2.04 ± 0.094 | protein stability index (san1∆): 2.3 ± 0.11 | protein stability index (ubr1∆): 1.82 ± 0.083

VLGTPDQKIWPYLEKYP [SSN3]
protein stability index (doa10∆): 2.42 ± 0.077 | protein stability index (pdr5∆): 1.72 ± 0.053 | protein stability index (san1∆): 2.3 ± 0.068 | protein stability index (ubr1∆): 2.13 ± 0.059

ISVARKIYDAFPQTAML [DIS3]
protein stability index (doa10∆): 2.41 ± 0.098 | protein stability index (pdr5∆): 2.4 ± 0.072 | protein stability index (san1∆): 2.61 ± 0.14 | protein stability index (ubr1∆): 2.36 ± 0.089

RKQIDETQVLVSTPEKW [BRR2]
protein stability index (doa10∆): 2.07 ± 0.052 | protein stability index (pdr5∆): 2.46 ± 0.058 | protein stability index (san1∆): 2.31 ± 0.055 | protein stability index (ubr1∆): 2.77 ± 0.028

RELARIKKYASVVRVLV [RPL3]
protein stability index (doa10∆): 1.32 ± 0.09 | protein stability index (pdr5∆): 1.17 ± 0.12 | protein stability index (san1∆): 1.13 ± 0.18 | protein stability index (ubr1∆): 1.2 ± 0.11

DINVESLTQSVCDLALR [PUP2]
protein stability index (doa10∆): 1.52 ± 0.1 | protein stability index (pdr5∆): 1.91 ± 0.067 | protein stability index (san1∆): 1.67 ± 0.18 | protein stability index (ubr1∆): 1.93 ± 0.037

AQKYASIVGVDLSSAAS [FAS2]
protein stability index (doa10∆): 2.13 ± 0.069 | protein stability index (pdr5∆): 2.21 ± 0.082 | protein stability index (san1∆): 1.66 ± 0.12 | protein stability index (ubr1∆): 1.75 ± 0.062

TRNEQTTIQTEKVRPTP [MCD1]
protein stability index (doa10∆): 2.82 ± 0.04 | protein stability index (pdr5∆): 2.99 ± 0.046 | protein stability index (san1∆): 2.88 ± 0.036 | protein stability index (ubr1∆): 3 ± 0.031

FNDFSNIKTSEWDLYPQ [REC8]
protein stability index (doa10∆): 2.84 ± 0.082 | protein stability index (pdr5∆): 2.92 ± 0.053 | protein stability index (san1∆): 2.78 ± 0.075 | protein stability index (ubr1∆): 3.15 ± 0.082

IQKEEEPENNTVIEGVK [SWI3]
protein stability index (doa10∆): 3.3 ± 0.073 | protein stability index (pdr5∆): 3.06 ± 0.072 | protein stability index (san1∆): 3.28 ± 0.048 | protein stability index (ubr1∆): 3.25 ± 0.053

PINLQNGEEDEVALFSQ [YLR335W/NUP2]
protein stability index (doa10∆): 3.11 ± 0.14 | protein stability index (pdr5∆): 3.39 ± 0.17 | protein stability index (san1∆): 3.22 ± 0.054 | protein stability index (ubr1∆): 3.17 ± 0.18

PSSEKPNIRTMSGTTKR [SSN2]
protein stability index (pdr5∆): 2.45 ± 0.27

PDYYVSILSFVDKELLE [RPT2]
protein stability index (doa10∆): 2.6 ± 0.054 | protein stability index (pdr5∆): 2.55 ± 0.048 | protein stability index (san1∆): 2.39 ± 0.05 | protein stability index (ubr1∆): 2.59 ± 0.046

SESKQLGNTSSVANTPS [SWI3]
protein stability index (doa10∆): 3.08 ± 0.071 | protein stability index (pdr5∆): 2.56 ± 0.057 | protein stability index (san1∆): 2.98 ± 0.073 | protein stability index (ubr1∆): 2.94 ± 0.046

MKVFVTKHLMPQDLTFN [RPB7]
protein stability index (doa10∆): 2.96 ± 0.062 | protein stability index (pdr5∆): 2.87 ± 0.054 | protein stability index (san1∆): 2.54 ± 0.066 | protein stability index (ubr1∆): 2.94 ± 0.051

RLELPVDFQNDLKDILE [BRR2]
protein stability index (doa10∆): 2.83 ± 0.14 | protein stability index (pdr5∆): 3.09 ± 0.084 | protein stability index (san1∆): 2.78 ± 0.061 | protein stability index (ubr1∆): 2.81 ± 0.052

PTHYKIPAWFLNRQNDI [RPS18A]
protein stability index (doa10∆): 2.12 ± 0.065 | protein stability index (pdr5∆): 2.19 ± 0.062 | protein stability index (san1∆): 1.8 ± 0.071 | protein stability index (ubr1∆): 1.75 ± 0.046

LAIDNMYILGMCVSKGN [YCG1]
protein stability index (doa10∆): 2.19 ± 0.069 | protein stability index (pdr5∆): 2.02 ± 0.061 | protein stability index (san1∆): 2.27 ± 0.089 | protein stability index (ubr1∆): 2.42 ± 0.057

SQFLKRVHANLQCISQI [SNF11]
protein stability index (doa10∆): 1.17 ± 0.043 | protein stability index (pdr5∆): 1.25 ± 0.041 | protein stability index (san1∆): 1.21 ± 0.07 | protein stability index (ubr1∆): 1.2 ± 0.057

YYAKKRAFTKKVSSASA [RPL16B]
protein stability index (doa10∆): 1.82 ± 0.075 | protein stability index (pdr5∆): 1.71 ± 0.048 | protein stability index (san1∆): 1.95 ± 0.068 | protein stability index (ubr1∆): 1.41 ± 0.055

NYPQDEINAVFNELCDP [POP1]
protein stability index (doa10∆): 2.84 ± 0.059 | protein stability index (pdr5∆): 3.04 ± 0.051 | protein stability index (san1∆): 2.9 ± 0.057 | protein stability index (ubr1∆): 3.07 ± 0.056

HIFQVEYALEAVKRGTC [PRE6]
protein stability index (doa10∆): 2.76 ± 0.15 | protein stability index (pdr5∆): 2.75 ± 0.13 | protein stability index (san1∆): 2.54 ± 0.19 | protein stability index (ubr1∆): 2.77 ± 0.19

PMYKELWINYIKELLNI [POP4]
protein stability index (doa10∆): 1.67 ± 0.19 | protein stability index (pdr5∆): 1.08 ± 0.11

NEDQFLEEITQYEHLIK [YDL116W/NUP84]
protein stability index (pdr5∆): 3.02 ± 0.27

YDSDSDSSVEDSTDNEN [LIN1]
protein stability index (doa10∆): 3.08 ± 0.071 | protein stability index (pdr5∆): 2.95 ± 0.1 | protein stability index (san1∆): 2.91 ± 0.12 | protein stability index (ubr1∆): 3.1 ± 0.042

NSIWGSSLRKNASGNKR [ITC1]
protein stability index (doa10∆): 1.6 ± 0.062 | protein stability index (pdr5∆): 2.12 ± 0.097 | protein stability index (san1∆): 2.5 ± 0.11 | protein stability index (ubr1∆): 1.86 ± 0.044
